Tests used:
AncSZ = assay: phosphorylation enrichment, bacterial display (enrichment ratio); higher = better substrate or ligand; peptides without Tyr show the background
EPHB1 = EPHB1 (UniProt P54762); assay: as above
EPHB2 = EPHB2 (UniProt P29323); assay: as above
FGFR1 = FGFR1 (UniProt P11362); assay: as above
FGFR3 = FGFR3 (UniProt P22607); assay: as above
Fer (mouse) = assay: as above
Fes = Fes (UniProt P07332); assay: as above
Fyn = Fyn (UniProt P06241); assay: as above
Hck = Hck (UniProt P08631); assay: as above
Chain of Hck (P08631 whole entry, looked up): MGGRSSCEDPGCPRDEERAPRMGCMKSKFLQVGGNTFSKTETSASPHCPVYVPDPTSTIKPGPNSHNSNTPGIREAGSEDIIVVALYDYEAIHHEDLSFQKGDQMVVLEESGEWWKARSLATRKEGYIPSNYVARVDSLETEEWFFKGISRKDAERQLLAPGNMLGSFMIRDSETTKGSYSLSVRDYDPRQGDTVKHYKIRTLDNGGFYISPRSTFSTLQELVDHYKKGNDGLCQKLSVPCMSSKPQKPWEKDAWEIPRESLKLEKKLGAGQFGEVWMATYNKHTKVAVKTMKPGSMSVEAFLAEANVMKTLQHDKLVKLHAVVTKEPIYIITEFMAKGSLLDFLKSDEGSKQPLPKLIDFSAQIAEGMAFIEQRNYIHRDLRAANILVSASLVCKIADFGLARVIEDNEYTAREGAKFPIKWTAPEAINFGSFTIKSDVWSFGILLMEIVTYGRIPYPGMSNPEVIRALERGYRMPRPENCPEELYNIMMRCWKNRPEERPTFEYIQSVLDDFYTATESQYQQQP

Jak2 = Jak2 (UniProt O60674); assay: as above
MERTK = MERTK (UniProt Q12866); assay: as above
c-Abl (mouse) = assay: as above
c-Src = assay: as above
Grb2 SH2 = Grb2 SH2 (UniProt P62993); assay: SH2 binding enrichment of the phosphorylated peptide, bacterial display (enrichment ratio); higher = better substrate or ligand; peptides without Tyr show the background
Chain of Grb2 SH2 (P62993 whole entry, looked up): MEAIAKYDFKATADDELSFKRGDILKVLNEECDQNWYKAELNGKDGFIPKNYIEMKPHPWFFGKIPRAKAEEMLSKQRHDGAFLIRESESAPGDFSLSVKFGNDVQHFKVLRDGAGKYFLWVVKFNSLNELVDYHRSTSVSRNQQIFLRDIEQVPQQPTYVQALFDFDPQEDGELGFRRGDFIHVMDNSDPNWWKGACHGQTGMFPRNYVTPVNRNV

SHP2-C SH2 = assay: as above
c-Src SH2 = assay: as above
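For SH2 binding enrichment of the phosphorylated peptide, bacterial display in this document: peptide library displayed on the E. coli surface as eCPX fusions, selected cells deep-sequenced, score is each peptide's frequency after selection divided by its frequency in the input.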
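For phosphorylation enrichment, bacterial display in this document: 11-residue human phosphosite peptides and single-mutation variants displayed on the E. coli surface, counted by deep sequencing, each peptide's frequency after selection divided by its frequency in the unselected input library; frequency after pTyr selection over input frequency; kinase dosed for 20-30% of maximal phosphorylation in three min.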

Chain of FGFR1 (P11362 whole entry, looked up): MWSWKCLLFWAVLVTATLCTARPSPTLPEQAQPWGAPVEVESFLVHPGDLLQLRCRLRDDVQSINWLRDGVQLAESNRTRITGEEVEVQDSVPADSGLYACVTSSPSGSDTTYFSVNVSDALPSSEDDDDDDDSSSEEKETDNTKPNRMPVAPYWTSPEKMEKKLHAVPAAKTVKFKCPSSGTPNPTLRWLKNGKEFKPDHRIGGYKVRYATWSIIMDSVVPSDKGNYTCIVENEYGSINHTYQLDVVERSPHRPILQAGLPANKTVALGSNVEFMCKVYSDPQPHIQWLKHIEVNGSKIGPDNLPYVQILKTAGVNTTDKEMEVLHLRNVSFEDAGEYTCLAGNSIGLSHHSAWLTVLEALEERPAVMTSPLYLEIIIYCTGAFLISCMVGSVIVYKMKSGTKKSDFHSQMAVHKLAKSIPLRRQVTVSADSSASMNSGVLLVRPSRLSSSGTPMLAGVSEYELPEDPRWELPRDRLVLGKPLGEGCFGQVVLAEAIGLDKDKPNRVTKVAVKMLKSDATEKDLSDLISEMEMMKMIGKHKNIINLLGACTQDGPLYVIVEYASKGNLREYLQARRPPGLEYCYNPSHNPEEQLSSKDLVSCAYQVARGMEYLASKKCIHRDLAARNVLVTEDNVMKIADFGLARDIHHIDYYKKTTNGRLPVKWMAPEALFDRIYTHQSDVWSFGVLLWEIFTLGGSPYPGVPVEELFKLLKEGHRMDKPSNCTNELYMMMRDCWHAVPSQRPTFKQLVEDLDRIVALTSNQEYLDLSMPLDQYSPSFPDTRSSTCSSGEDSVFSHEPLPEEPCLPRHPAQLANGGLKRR
Chain of EPHB2 (P29323 whole entry, looked up): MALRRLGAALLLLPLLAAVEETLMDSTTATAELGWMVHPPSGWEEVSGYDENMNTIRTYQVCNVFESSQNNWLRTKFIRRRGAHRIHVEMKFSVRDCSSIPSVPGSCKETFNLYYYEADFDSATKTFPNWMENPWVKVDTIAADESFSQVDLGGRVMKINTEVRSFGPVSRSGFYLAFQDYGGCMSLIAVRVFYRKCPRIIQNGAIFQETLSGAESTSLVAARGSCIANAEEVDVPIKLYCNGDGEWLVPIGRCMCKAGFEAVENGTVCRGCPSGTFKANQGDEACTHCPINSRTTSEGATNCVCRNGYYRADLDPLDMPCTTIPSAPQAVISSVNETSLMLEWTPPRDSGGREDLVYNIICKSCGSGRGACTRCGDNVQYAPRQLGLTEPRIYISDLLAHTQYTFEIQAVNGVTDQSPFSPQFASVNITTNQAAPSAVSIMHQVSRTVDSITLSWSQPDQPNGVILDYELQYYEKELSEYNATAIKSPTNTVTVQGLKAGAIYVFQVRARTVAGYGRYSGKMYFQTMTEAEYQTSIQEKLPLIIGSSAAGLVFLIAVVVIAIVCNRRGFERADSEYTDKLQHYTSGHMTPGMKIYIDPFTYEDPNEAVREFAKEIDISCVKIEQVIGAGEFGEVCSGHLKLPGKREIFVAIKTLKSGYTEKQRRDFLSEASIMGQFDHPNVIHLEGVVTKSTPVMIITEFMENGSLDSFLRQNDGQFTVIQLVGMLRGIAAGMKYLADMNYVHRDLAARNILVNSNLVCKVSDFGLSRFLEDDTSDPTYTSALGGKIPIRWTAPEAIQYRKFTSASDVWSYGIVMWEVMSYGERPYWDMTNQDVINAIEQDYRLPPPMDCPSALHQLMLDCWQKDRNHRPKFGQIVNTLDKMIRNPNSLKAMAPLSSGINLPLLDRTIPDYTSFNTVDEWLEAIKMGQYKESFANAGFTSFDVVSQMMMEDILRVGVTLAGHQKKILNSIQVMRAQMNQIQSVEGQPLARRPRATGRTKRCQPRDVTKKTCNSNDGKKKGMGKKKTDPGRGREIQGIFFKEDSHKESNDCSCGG
Chain of EPHB1 (P54762 whole entry, looked up): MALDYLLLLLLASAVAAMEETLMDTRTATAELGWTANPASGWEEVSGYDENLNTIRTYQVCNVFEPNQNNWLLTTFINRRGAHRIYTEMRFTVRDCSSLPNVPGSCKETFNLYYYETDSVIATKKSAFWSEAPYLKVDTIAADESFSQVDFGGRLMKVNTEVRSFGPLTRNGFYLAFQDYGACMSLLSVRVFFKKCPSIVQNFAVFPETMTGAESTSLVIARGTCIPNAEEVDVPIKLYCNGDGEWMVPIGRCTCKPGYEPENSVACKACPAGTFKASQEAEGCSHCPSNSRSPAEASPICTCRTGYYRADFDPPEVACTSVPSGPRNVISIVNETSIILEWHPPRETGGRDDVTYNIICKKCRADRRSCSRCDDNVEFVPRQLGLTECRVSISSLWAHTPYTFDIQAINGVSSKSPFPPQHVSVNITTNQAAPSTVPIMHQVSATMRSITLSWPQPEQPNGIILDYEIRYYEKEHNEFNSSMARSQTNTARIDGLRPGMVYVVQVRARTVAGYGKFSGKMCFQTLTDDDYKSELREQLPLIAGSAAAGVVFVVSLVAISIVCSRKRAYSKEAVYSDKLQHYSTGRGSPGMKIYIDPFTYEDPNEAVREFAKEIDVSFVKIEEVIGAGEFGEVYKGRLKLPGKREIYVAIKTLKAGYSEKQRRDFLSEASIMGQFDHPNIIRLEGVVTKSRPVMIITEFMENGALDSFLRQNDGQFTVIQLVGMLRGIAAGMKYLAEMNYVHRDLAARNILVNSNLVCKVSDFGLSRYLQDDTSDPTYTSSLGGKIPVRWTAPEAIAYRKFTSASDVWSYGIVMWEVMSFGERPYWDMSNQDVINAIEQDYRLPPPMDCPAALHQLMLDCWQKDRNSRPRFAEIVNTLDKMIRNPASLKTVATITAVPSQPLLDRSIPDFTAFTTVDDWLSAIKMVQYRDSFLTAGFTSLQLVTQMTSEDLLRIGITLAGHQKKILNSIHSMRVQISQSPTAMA
Chain of FGFR3 (P22607 whole entry, looked up): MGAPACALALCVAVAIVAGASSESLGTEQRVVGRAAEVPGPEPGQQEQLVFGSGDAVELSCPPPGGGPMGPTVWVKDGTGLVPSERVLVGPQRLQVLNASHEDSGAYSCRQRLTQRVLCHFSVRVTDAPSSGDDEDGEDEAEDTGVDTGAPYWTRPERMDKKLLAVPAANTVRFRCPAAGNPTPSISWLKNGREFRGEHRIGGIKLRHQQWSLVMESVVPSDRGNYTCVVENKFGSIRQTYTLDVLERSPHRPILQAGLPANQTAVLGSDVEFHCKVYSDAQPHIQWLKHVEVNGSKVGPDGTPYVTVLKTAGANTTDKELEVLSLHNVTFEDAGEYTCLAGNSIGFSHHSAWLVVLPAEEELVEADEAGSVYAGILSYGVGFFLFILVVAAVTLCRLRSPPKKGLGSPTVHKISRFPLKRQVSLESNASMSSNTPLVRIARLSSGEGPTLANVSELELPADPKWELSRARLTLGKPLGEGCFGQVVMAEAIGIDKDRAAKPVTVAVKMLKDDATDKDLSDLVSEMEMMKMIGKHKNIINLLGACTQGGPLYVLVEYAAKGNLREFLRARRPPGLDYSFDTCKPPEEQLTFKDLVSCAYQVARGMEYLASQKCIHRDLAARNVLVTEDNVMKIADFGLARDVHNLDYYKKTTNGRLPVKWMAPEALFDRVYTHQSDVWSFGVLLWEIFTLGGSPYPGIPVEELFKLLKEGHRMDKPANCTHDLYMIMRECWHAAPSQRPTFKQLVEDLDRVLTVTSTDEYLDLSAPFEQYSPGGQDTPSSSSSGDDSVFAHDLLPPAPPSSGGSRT
Chain of Fyn (P06241 whole entry, looked up): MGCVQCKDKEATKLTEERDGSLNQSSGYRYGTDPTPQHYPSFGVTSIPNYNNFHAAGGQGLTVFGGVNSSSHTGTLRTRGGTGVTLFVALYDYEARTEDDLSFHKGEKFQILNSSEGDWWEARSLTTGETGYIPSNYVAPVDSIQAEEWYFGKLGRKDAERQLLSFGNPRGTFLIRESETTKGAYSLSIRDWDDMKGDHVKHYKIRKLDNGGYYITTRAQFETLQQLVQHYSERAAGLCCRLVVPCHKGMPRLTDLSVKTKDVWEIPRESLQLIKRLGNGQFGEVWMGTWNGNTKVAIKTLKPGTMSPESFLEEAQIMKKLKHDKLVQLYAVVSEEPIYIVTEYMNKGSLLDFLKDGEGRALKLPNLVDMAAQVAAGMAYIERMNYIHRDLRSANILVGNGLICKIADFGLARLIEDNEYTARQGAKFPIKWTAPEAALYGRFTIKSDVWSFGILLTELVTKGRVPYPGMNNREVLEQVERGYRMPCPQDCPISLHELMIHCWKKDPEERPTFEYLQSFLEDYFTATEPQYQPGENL

Row | Sequence | phosphorylation enrichment (AncSZ) | phosphorylation enrichment (EPHB1) | phosphorylation enrichment (EPHB2) | phosphorylation enrichment (FGFR1) | phosphorylation enrichment (FGFR3) | phosphorylation enrichment (Fer (mouse)) | phosphorylation enrichment (Fes) | phosphorylation enrichment (Fyn) | phosphorylation enrichment (Hck) | phosphorylation enrichment (Jak2) | phosphorylation enrichment (MERTK) | phosphorylation enrichment (c-Abl (mouse)) | phosphorylation enrichment (c-Src) | SH2 binding enrichment (Grb2 SH2) | SH2 binding enrichment (SHP2-C SH2) | SH2 binding enrichment (c-Src SH2)
1 | HAVYVCDICHV [TWNK_Y508_Y508C] | 1.1 | 1.79 | 2.06 | 0.628 | 0.904 | 0.775 | 1.42 | 0.627 | 0.826 | 1.01 | 0.524 | 0.972 | 0.916 | 1.18 | 1.26 | 1.28
2 | HAVYVYDICHV [TWNK_Y508] | 1.68 | 5.08 | 6.29 | 1.59 | 1.41 | 6.45 | 1.31 | 7.09 | 4.08 | 1.01 | 5.12 | 1.18 | 5.04 | 0.87 | 0.898 | 0.867
3 | HFPFQCHRQLY [F12_Y53_Y53C] | 0.689 | 0.559 | 0.645 | 0.639 | 0.564 | 0.385 | 1.05 | 0.528 | 0.681 | 0.861 | 0.597 | 0.532 | 0.422 | 1.21 | 1.15 | 1.16
4 | HHIDFYKKTTN [FGFR1_Y654_YF] | 0.855 | 0.503 | 0.418 | 0.629 | 0.457 | 0.604 | 1.19 | 0.435 | 0.378 | 0.53 | 0.408 | 0.491 | 0.489 | 1.05 | 0.61 | 0.325
5 | HHTDECEYDEL [TGM1_Y134_Y134C] | 1.8 | 0.835 | 0.772 | 0.504 | 1.03 | 0.729 | 1.75 | 0.869 | 0.667 | 1.33 | 0.641 | 0.906 | 0.894 | 1.21 | 0.764 | 0.516
6 | HILFRYPKEFQ [IDS_Y234_P231L] | 1.33 | 0.822 | 0.797 | 0.866 | 0.92 | 0.779 | 1.19 | 0.63 | 0.603 | 1.59 | 0.573 | 0.744 | 1.64 | 0.625 | 0.791 | 0.572
7 | HLEKKYVHRDS [CSF1R_Y708_R710H] | 0.615 | 0.471 | 0.314 | 0.42 | 0.678 | 0.585 | 0.612 | 0.585 | 0.399 | 0.358 | 0.438 | 0.276 | 0.34 | 1.26 | 1.17 | 0.659
8 | HNVPICEGYAL [ACTC1_Y168_Y168C] | 0.86 | 0.801 | 0.513 | 0.732 | 0.841 | 0.499 | 1 | 0.434 | 0.916 | 0.895 | 0.505 | 0.652 | 0.668 | 0.833 | 0.779 | 0.587
9 | HQNGMYRLHQD [SGSH_Y89_G90R] | 0.814 | 0.741 | 0.745 | 0.521 | 0.661 | 0.66 | 0.971 | 0.42 | 0.461 | 0.933 | 0.414 | 0.549 | 0.5 | 0.869 | 0.776 | 0.504
10 | HRAVEYLLMGI [RAD23A_Y197_T200M] | 0.976 | 0.479 | 0.419 | 1.19 | 1.02 | 0.351 | 0.802 | 0.429 | 0.552 | 0.921 | 0.471 | 0.665 | 0.441 | 1.35 | 1.55 | 1.11
11 | HSGVSYFINLC [IGF2R_Y2024_N2020S_YF] | 1.47 | 0.682 | 0.558 | 0.439 | 0.835 | 0.652 | 1.51 | 0.44 | 0.482 | 1.34 | 0.417 | 1.21 | 0.439 | 0.651 | 0.491 | 0.461
12 | HVKHNYECLVF [XRCC5_Y416_I412V_YF] | 1.23 | 1.36 | 1.16 | 0.558 | 0.928 | 1.09 | 1.17 | 0.584 | 0.581 | 1.71 | 0.948 | 1.23 | 0.754 | 1.13 | 0.632 | 3.99
13 | IDGLEYLHSQS [STK11_Y166_G171S] | 0.953 | 0.503 | 0.549 | 0.457 | 0.597 | 0.476 | 1.07 | 0.465 | 0.604 | 0.831 | 0.325 | 0.616 | 0.357 | 0.768 | 0.622 | 0.413
14 | IEKLTYIDKWF [CPS1_Y872] | 0.896 | 0.515 | 0.513 | 0.638 | 0.687 | 0.532 | 0.937 | 0.412 | 0.492 | 0.817 | 0.385 | 0.619 | 0.601 | 0.724 | 0.465 | 0.311
15 | IFGASYVPFAA [RBM47_Y541_YF] | 0.775 | 0.432 | 0.53 | 0.589 | 0.636 | 0.542 | 0.783 | 0.609 | 0.92 | 1.27 | 0.71 | 0.496 | 1 | 0.889 | 0.932 | 0.676
16 | IFLENYNAGTF [CFI_Y421_H418L_YF] | 0.896 | 0.468 | 0.578 | 0.489 | 0.724 | 0.423 | 0.938 | 0.55 | 0.427 | 0.844 | 0.428 | 0.542 | 0.491 | 0.761 | 0.786 | 0.527
17 | IGEGTYGVLFK [CDK2_Y15_V18L_YF] | 0.85 | 1.1 | 1.73 | 0.38 | 0.606 | 0.673 | 0.997 | 8.03 | 6.57 | 0.702 | 1.48 | 0.708 | 5.31 | 0.882 | 0.8 | 0.387

Row | Sequence | phosphorylation enrichment (AncSZ) | phosphorylation enrichment (EPHB1) | phosphorylation enrichment (EPHB2) | phosphorylation enrichment (FGFR1) | phosphorylation enrichment (FGFR3) | phosphorylation enrichment (Fer (mouse)) | phosphorylation enrichment (Fes) | phosphorylation enrichment (Fyn) | phosphorylation enrichment (Hck) | phosphorylation enrichment (Jak2) | phosphorylation enrichment (MERTK) | phosphorylation enrichment (c-Abl (mouse)) | phosphorylation enrichment (c-Src) | SH2 binding enrichment (Grb2 SH2) | SH2 binding enrichment (SHP2-C SH2) | SH2 binding enrichment (c-Src SH2)
18 | IGNGYYFHVFS [MYBPC3_Y1136_R1138H] | 1.46 | 0.848 | 0.552 | 1.61 | 1.52 | 0.604 | 1.39 | 0.43 | 0.45 | 1.73 | 0.503 | 0.919 | 0.354 | 1.05 | 1.83 | 0.927
19 | IHTEFYDGLFP [BCR_Y561_K558T] | 1.47 | 0.739 | 0.828 | 0.683 | 0.813 | 1.65 | 1.34 | 1.06 | 3.83 | 0.993 | 1.02 | 0.902 | 1.24 | 0.82 | 0.459 | 0.63
20 | ILGRFYETGSI [PAX2_Y73_YF] | 0.737 | 0.489 | 0.515 | 0.423 | 0.578 | 0.4 | 0.779 | 0.5 | 0.451 | 0.566 | 0.428 | 0.52 | 0.414 | 0.85 | 1.17 | 1.17
21 | ILGRTHYVNHE [NEDD4_Y627_Y627H] | 0.565 | 0.468 | 0.671 | 0.419 | 0.434 | 0.376 | 0.593 | 0.373 | 0.318 | 0.582 | 0.398 | 0.596 | 0.482 | 5.66 | 1.44 | 0.767
22 | ILNANYMAKRL [GLDC_Y839] | 0.476 | 0.334 | 0.363 | 0.368 | 0.412 | 0.458 | 0.514 | 0.412 | 0.366 | 0.436 | 0.446 | 0.394 | 0.34 | 1.08 | 0.509 | 0.461
23 | ILTFKYLQIPM [KIT_Y547_K550I_YF] | 1.07 | 0.586 | 0.649 | 0.442 | 0.663 | 0.521 | 1.16 | 0.468 | 0.453 | 1.02 | 0.371 | 0.637 | 0.344 | 1.69 | 1.67 | 1.17
24 | IMFTSYFLTIL [TAS2R16_Y239_V235M] | 1.34 | 0.755 | 0.555 | 0.732 | 0.922 | 0.579 | 1.52 | 0.622 | 0.623 | 2.38 | 0.476 | 0.955 | 0.578 | 1.04 | 0.963 | 1.03
25 | IMITDYLLLFR [INSR_Y87] | 1.21 | 0.678 | 0.647 | 1.36 | 1.2 | 0.513 | 1.18 | 0.467 | 0.502 | 1.55 | 0.399 | 0.829 | 0.481 | 1.38 | 1.38 | 1.04
26 | IMVFVYSRVFQ [ADRB2_Y219] | 0.961 | 0.554 | 0.484 | 0.445 | 0.786 | 0.487 | 1.16 | 0.445 | 0.435 | 0.93 | 0.448 | 0.844 | 0.486 | 1.12 | 0.794 | 0.591
27 | INNIDYFKKTT [FGFR2_Y656_YF] | 0.768 | 0.46 | 0.415 | 0.567 | 0.64 | 0.36 | 0.648 | 0.409 | 0.567 | 0.605 | 0.37 | 0.373 | 0.5 | 0.893 | 0.598 | 0.445
28 | IPGGIYNADLN [CST4_Y35_D36N] | 0.748 | 0.514 | 0.366 | 0.542 | 0.516 | 0.472 | 0.95 | 1.27 | 1.27 | 0.746 | 0.443 | 0.654 | 1.36 | 0.943 | 0.646 | 0.635
29 | IPPRRYFRSGV [STAMBP_Y36] | 0.778 | 0.531 | 0.523 | 0.414 | 0.61 | 0.548 | 0.676 | 0.639 | 0.573 | 0.714 | 0.608 | 0.717 | 0.61 | 0.644 | 0.526 | 0.471
30 | IRKKYYRAILE [CHD7_Y1218_Q1214R] | 0.529 | 0.388 | 0.362 | 0.423 | 0.439 | 0.389 | 0.581 | 0.405 | 0.485 | 0.439 | 0.508 | 0.478 | 0.446 | 0.596 | 0.725 | 0.394
31 | IRTDAYVPAMT [RPE65_Y89_R91P] | 0.516 | 0.33 | 0.336 | 0.399 | 0.455 | 0.425 | 0.612 | 0.302 | 0.495 | 0.678 | 0.367 | 0.594 | 0.401 | 0.817 | 0.62 | 0.463
32 | IRTGIYHGGEP [PIK3CA_Y361_V356I] | 0.522 | 0.392 | 0.428 | 0.385 | 0.447 | 0.399 | 0.501 | 0.551 | 0.572 | 0.653 | 0.507 | 0.516 | 0.521 | 0.751 | 0.585 | 0.364
33 | IRTIDYRFTVW [IDS_Y497_YF] | 1.11 | 0.629 | 0.614 | 0.41 | 0.741 | 0.557 | 1.2 | 0.423 | 0.489 | 1.09 | 0.402 | 0.735 | 0.39 | 0.923 | 0.868 | 0.528

Reference: the supplement of paper PMC10065799, “High-throughput profiling of sequence recognition by tyrosine kinases and SH2 domains using bacterial peptide display” (eLife, 2023)
